Test results taken from paper doi:10.1101/2021.02.16.431021 (bioRxiv, 2021).

Target: the molecule itself
Test: crystal structure

B1: SARS-CoV main protease (M^pro) (enzyme)
chain: SGFRKMAFPSGKVEGCMVQVTCGTTTLNGLWLDDTVYCPRHVICTAEDMLNPNYEDLLIRKSNHSFLVQAGNVQLRVIGHSMQNCLLRLKVDTSNPKTPKYKFVRIQPGQTFSVLACYNGSPSGVYQCAMRPNHTIKGSFLNGSCGSVGFNIDYDCVSFCYMHHMELPTGVHAGTDLEGKFYGPFVDRQTAQAAGTDTTITLNVLAWLYAAVINGDRWFLNRFTTTLNDFNLVAMKYNYEPLTQDHVDILGPLSAQTGIAVLDMCAALKELLQNGMNGRTILGSTILEDEFTPFDVVRQCSGVTFQ
- binding result: binds
